Laboratory results published in US20220162330A1 (CELGENE, published 2022).

Legend:
[1] = target: T1, human CD47 expressed on the cell surface (human, UniProt Q08722 19-323); test: blocking of human SIRPα binding to OCI-Ly3 cells; competitor SIRPα (FIG. 21)
T1 construct: whole, on cells; also called cell surface CD47; CD47 on Raji, OCI-Ly3, Fadu cells, human RBCs, platelets and blood cells

[2] = target: T1, human CD47 expressed on the cell surface; test: cell-based or functional assay
[3] = target: T1, human CD47 expressed on the cell surface; test: blocking of human SIRPα binding to OCI-Ly3 cells; competitor SIRPα at a saturating concentration, secondary antibody detection; OCI-Ly3 cells (CD20+ DLBCL line); blocking of human SIRPα binding
[4] = target: T1, human CD47 expressed on the cell surface; test: blocking of human SIRPα binding to Raji cells; competitor SIRPα at a saturating concentration, secondary antibody detection; Raji cells (CD47+/CD20+ Burkitt's lymphoma line); blocking of human SIRPα binding
human CD20 on cells = target: T2, human CD20 on cells (human, UniProt P11836 1-297); test: binding to Raji cells (CD20+/CD47+), MFI on the sheet (the legend paragraph 49 says SPR); the signal is not resolved between the CD20 and CD47 arms
T2 construct: whole, on cells; The CD20+ cells in these assays also carry CD47; also called CD20 on B cells and Raji cells
T2 sequence (looked up): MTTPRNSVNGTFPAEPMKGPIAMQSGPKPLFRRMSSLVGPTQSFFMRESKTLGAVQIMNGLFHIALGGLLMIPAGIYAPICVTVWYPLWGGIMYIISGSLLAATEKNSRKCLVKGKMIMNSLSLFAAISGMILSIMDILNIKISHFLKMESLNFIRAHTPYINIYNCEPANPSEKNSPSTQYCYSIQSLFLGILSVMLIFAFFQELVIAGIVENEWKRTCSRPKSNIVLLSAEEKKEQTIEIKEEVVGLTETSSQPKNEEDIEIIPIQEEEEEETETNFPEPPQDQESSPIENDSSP

mouse CD47 = target: T3, mouse CD47 (mouse, UniProt Q61735 19-140, limits assumed); test: SPR
T3 sequence (looked up): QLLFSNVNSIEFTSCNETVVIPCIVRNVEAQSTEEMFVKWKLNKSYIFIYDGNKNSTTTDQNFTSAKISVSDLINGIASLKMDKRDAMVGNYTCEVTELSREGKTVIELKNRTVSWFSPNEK

human CD47 ECD [5] = target: T4, human CD47 ECD (human, UniProt Q08722 19-139); test: SPR
T4 construct: extracellular domain; also called human CD47 extracellular domain

cynomolgus CD47 ECD = target: T5, cynomolgus CD47 ECD (cynomolgus, UniProt A0A2K5X523 19-139); test: SPR
T5 construct: extracellular domain

[6] = target: T1, human CD47 expressed on the cell surface; test: cell-based or functional assay; remark: listed apart in the source
human CD47 ECD [7] = target: T4, human CD47 ECD; test: column 'Human CD47 KD (µM)'; the sheet names no assay (SPR per paragraph 7 and paragraph 162)

B1: TPP-23 (408_437 with IgG1) (antibody, V domains shown)
VH: QMQLVQSGAEVKKPGSSVKVSCKASGFNIKDYYLHWVRQAPGKGLEWMGWIDPDQGDTEYAQKFQGRVTITRDRSTSTAYMELRSLRAEDTAVYYCNAAYGSSSYPMDYWGQGTLVTVSS
VL: NIQMTQSPSSLSASVGDRVTITCRASQDIHRYLSWFQQKPGKVPKHLIYRANRLVSGVPSRFSGSGSGTEFTLTISSLQPEDFATYYCLQYDEFPYTFGGGTKVEIK
notes: Monospecific IgG1 with the 408_437 Fab; also called parental CD47 mAb
For B1, the IC50 [1] was 0.11 nM.

B2: TPP-1360 (bispecific antibody, human IgG1, kappa)
light 1: NIQMTQSPSSLSASVGDRVTITCRASQDIHRYLSWFQQKPGKVPKHLIYRESRFVDGVPSRFSGSGSGTEFTLTISSLQPEDFATYYCLQYDEFPYTFGGGTKVEIKRTVAAPSVFIFPPSDEELKSGTASVVCWLNNFYPREAKVQWKVDNALQSGNSEESVTEQDSKDSTYSLSSTLELSKADYEKHKVYACEVTHQGLSSPVTKSFNRGEC
heavy 1: QMQLVQSGAEVKKPGSSVKVSCKASGFNIKDYYLHWVRQAPGKGLEWMGWIDPDQGDTYYAQKFQGRVTITRDRSTSTAYMELRSLRAEDTAVYYCNAAYGESSYPMDYWGQGTLVTVSSASTKGPSVFPLAPSSKSTSGGTAALGCLVKDYFPEPVTVSWNSGALTSGVHTFPAVLKSSGLYSLSSVVTVPSSSLGTQTYICNVNHKPSNTKVDKKVEPKSCDKTHTCPPCPAPELLGGPSVFLFPPKPKDTLMISRTPEVTCVVVDVSHEDPEVKFNWYVDGVEVHNAKTKPREEQYNSTYRVVSVLTVLHQDWLNGKEYKCKVSNKALPAPIEKTISKAKGQPREPQVYVLPPSREEMTKNQVSLLCLVKGFYPSDIAVEWESNGQPENNYLTWPPVLDSDGSFFLYSKLTVDKSRWQQGNVFSCSVMHEALHNHYTQKSLSLSPGK
light 2: QIVLSQSPAILSASPGEKVTMTCRASSSVSYIHWFQQKPGSSPKPWIYATSNLASGVPVRFSGSGSGTSYSLTISRVEAEDAATYYCQQWTSNPPTFGGGTKLEIKRTVAAPSVAIFPPSDERLKSGTASVVCVLNNFYPREAKVQWKVDNALQSGNSQESVTEQDSKDSTYSLSSRLTLSKADYEKHKVYACEVTHQGLSSPVTKSFNRGEC
heavy 2: QVQLQQPGAELVKPGASVKMSCKASGYTFTSYNMHWVKQTPGRGLEWIGAIYPGNGDTSYNQKFKGKATLTADKSSSTAYMQLSSLTSEDSAVYYCARSTYYGGDWYFNVWGAGTTVTVSAASTKGPSVFPLAPSSKSTSGGTAWLGCEVTDYFPEPVTVSWNSGALTSGVHTFPAVLESSGLYSLSSVVTVPSSSLGTQTYICNVNHKPSNTKVDKKVEPKSCDKTHTCPPCPAPELLGGPSVFLFPPKPKDTLMISRTPEVTCVVVDVSHEDPEVKFNWYVDGVEVHNAKTKPREEQYNSTYRVVSVLTVLHQDWLNGKEYKCKVSNKALPAPIEKTISKAKGQPREPQVYVYPPSREEMTKNQVSLTCLVKGFYPSDIAVEWESNGQPENNYKTTPPVLDSDGSFALVSKLTVDKSRWQQGNVFSCSVMHEALHNHYTQKSLSLSPGK
notes: IgG1 1+1 heterodimer: one detuned anti-CD47 arm and one rituximab-derived anti-CD20 arm; also called CD47×CD20 bispecific; CD47×CD20 IgG1
B2 was tested, and the “IC50 of activation of macrophage phagocytosis, OCI-Ly3 cell line” value [2] was 1.4 nM, the “IC50 of activation of macrophage phagocytosis, Raji cell line” value [2] was 1.8 nM and the EC50 [3] was 1.3 nM. For the same binder, the EC50 [4] was 1.64 nM, the binding result (human CD20 on cells) was “binds” and the binding result (mouse CD47) was “no binding”. The Kd (human CD47 ECD [5]) was 1700 nM, the “fold decrease in affinity relative to the parental anti-CD47 binder” value (human CD47 ECD [5]) was roughly 350 fold and the Kd (cynomolgus CD47 ECD) was 4510 nM.

B3: TPP-1361 (bispecific antibody, human IgG1, kappa)
light 1: NIQMTQSPSSLSASVGDRVTITCQASQDIHRYLSWFQQDPGTVPQHLIYRESRFVDGVPSRFSGSGSGTEFTLTISSLQPEDFATYYCLQYDEFPYTFGGGTKVEIKRTVAAPSVFIFPPSDEELKSGTASVVCWLNNFYPREAKVQWKVDNALQSGNSEESVTEQDSKDSTYSLSSTLELSKADYEKHKVYACEVTHQGLSSPVTKSFNRGEC
heavy 1: QMQLVQSGAEVKKPGSSVKVSCKASGFNIKDYYLHWVRQAPGQGLEWMGWIDPDQGDTYYAQKFQGRVTITRDRSTSTAYMELASLTAEDTAVYYCNAAYGESSYPMDYWGQGTLVTVSSASTKGPSVFPLAPSSKSTSGGTAALGCLVKDYFPEPVTVSWNSGALTSGVHTFPAVLKSSGLYSLSSVVTVPSSSLGTQTYICNVNHKPSNTKVDKKVEPKSCDKTHTCPPCPAPELLGGPSVFLFPPKPKDTLMISRTPEVTCVVVDVSHEDPEVKFNWYVDGVEVHNAKTKPREEQYNSTYRVVSVLTVLHQDWLNGKEYKCKVSNKALPAPIEKTISKAKGQPREPQVYVLPPSREEMTKNQVSLLCLVKGFYPSDIAVEWESNGQPENNYLTWPPVLDSDGSFFLYSKLTVDKSRWQQGNVFSCSVMHEALHNHYTQKSLSLSPGK
light 2: QIVLSQSPAILSASPGEKVTMTCRASSSVSYIHWFQQKPGSSPKPWIYATSNLASGVPVRFSGSGSGTSYSLTISRVEAEDAATYYCQQWTSNPPTFGGGTKLEIKRTVAAPSVAIFPPSDERLKSGTASVVCVLNNFYPREAKVQWKVDNALQSGNSQESVTEQDSKDSTYSLSSRLTLSKADYEKHKVYACEVTHQGLSSPVTKSFNRGEC
heavy 2: QVQLQQPGAELVKPGASVKMSCKASGYTFTSYNMHWVKQTPGRGLEWIGAIYPGNGDTSYNQKFKGKATLTADKSSSTAYMQLSSLTSEDSAVYYCARSTYYGGDWYFNVWGAGTTVTVSAASTKGPSVFPLAPSSKSTSGGTAWLGCEVTDYFPEPVTVSWNSGALTSGVHTFPAVLESSGLYSLSSVVTVPSSSLGTQTYICNVNHKPSNTKVDKKVEPKSCDKTHTCPPCPAPELLGGPSVFLFPPKPKDTLMISRTPEVTCVVVDVSHEDPEVKFNWYVDGVEVHNAKTKPREEQYNSTYRVVSVLTVLHQDWLNGKEYKCKVSNKALPAPIEKTISKAKGQPREPQVYVYPPSREEMTKNQVSLTCLVKGFYPSDIAVEWESNGQPENNYKTTPPVLDSDGSFALVSKLTVDKSRWQQGNVFSCSVMHEALHNHYTQKSLSLSPGK
notes: IgG1 1+1 heterodimer; also called CD47×CD20 bispecific
In the case of B3, the “EC50 of macrophage phagocytosis of OCI-Ly3 cells (column 'OCI-Ly3 Mφ EC50 (µg/mL)')” value [6] is reported as 0.5 µg/mL, the “EC50 of macrophage phagocytosis of OCI-Ly3 cells, repeat (column 'OCI-Ly3 Mφ EC50 (µg/mL) Repeat')” value [6] is reported as 0.45 µg/mL and the Kd (human CD47 ECD [7]) is reported as 2530 nM.

B4: TPP-1367 (bispecific antibody, human IgG1, kappa)
anti-CD47 light chain: NIQMTQSPSSLSASVGDRVTITCRASQDIHRYLSWFQQKPGKVPKHLIYRANRLVSGVPSRFSGSGSGTEFTLTISSLQPEDFATYYCLQYDEFPYTFGGGTKVEIKRTVAAPSVFIFPPSDEELKSGTASVVCWLNNFYPREAKVQWKVDNALQSGNSEESVTEQDSKDSTYSLSSTLELSKADYEKHKVYACEVTHQGLSSPVTKSFNRGEC
anti-CD47 heavy chain: QMQLVQSGAEVKKPGSSVKVSCKASGFNIKDYYLHWVRQAPGKGLEWMGWIDPDQGDTYYAQKFQGRVTITRDRSTSTAYMELRSLRAEDTAVYYCNAAYGESSYPMDYWGQGTLVTVSSASTKGPSVFPLAPSSKSTSGGTAALGCLVKDYFPEPVTVSWNSGALTSGVHTFPAVLKSSGLYSLSSVVTVPSSSLGTQTYICNVNHKPSNTKVDKKVEPKSCDKTHTCPPCPAPELLGGPSVFLFPPKPKDTLMISRTPEVTCVVVDVSHEDPEVKFNWYVDGVEVHNAKTKPREEQYNSTYRVVSVLTVLHQDWLNGKEYKCKVSNKALPAPIEKTISKAKGQPREPQVYVLPPSREEMTKNQVSLLCLVKGFYPSDIAVEWESNGQPENNYLTWPPVLDSDGSFFLYSKLTVDKSRWQQGNVFSCSVMHEALHNHYTQKSLSLSPGK
anti-CD20 light chain: QIVLSQSPAILSASPGEKVTMTCRASSSVSYIHWFQQKPGSSPKPWIYATSNLASGVPVRFSGSGSGTSYSLTISRVEAEDAATYYCQQWTSNPPTFGGGTKLEIKRTVAAPSVAIFPPSDERLKSGTASVVCVLNNFYPREAKVQWKVDNALQSGNSQESVTEQDSKDSTYSLSSRLTLSKADYEKHKVYACEVTHQGLSSPVTKSFNRGEC
anti-CD20 heavy chain: QVQLQQPGAELVKPGASVKMSCKASGYTFTSYNMHWVKQTPGRGLEWIGAIYPGNGDTSYNQKFKGKATLTADKSSSTAYMQLSSLTSEDSAVYYCARSTYYGGDWYFNVWGAGTTVTVSAASTKGPSVFPLAPSSKSTSGGTAWLGCEVTDYFPEPVTVSWNSGALTSGVHTFPAVLESSGLYSLSSVVTVPSSSLGTQTYICNVNHKPSNTKVDKKVEPKSCDKTHTCPPCPAPELLGGPSVFLFPPKPKDTLMISRTPEVTCVVVDVSHEDPEVKFNWYVDGVEVHNAKTKPREEQYNSTYRVVSVLTVLHQDWLNGKEYKCKVSNKALPAPIEKTISKAKGQPREPQVYVYPPSREEMTKNQVSLTCLVKGFYPSDIAVEWESNGQPENNYKTTPPVLDSDGSFALVSKLTVDKSRWQQGNVFSCSVMHEALHNHYTQKSLSLSPGK
notes: IgG1 1+1 heterodimer; also called CD47/CD20 TPP1367; CD47×CD20 bispecific
With B4 the “EC50 of macrophage phagocytosis of OCI-Ly3 cells (column 'OCI-Ly3 Mφ EC50 (µg/mL)')” value [6] was 0.064 µg/mL, the “EC50 of macrophage phagocytosis of OCI-Ly3 cells, repeat (column 'OCI-Ly3 Mφ EC50 (µg/mL) Repeat')” value [6] was 0.046 µg/mL and the Kd (human CD47 ECD [7]) was 430 nM.
